These results are taken from patent US20160145328A1 (published 2016).

B1: scFv DP47 VH A33D - linker - common VL (scFv, name in Kabat numbering)
scFv: QVQLLESGGGLVQPGGSLRLSCAASGFTFSSYDMSWVRQAPGKGLEWVSAISGSGGSTYYADSVKGRFTISRDNSKNTLYLQMNSLRAEDTAVYYCAKSYGAFDYWGQGTLVTVSSGGGGSGGGGSGGGGSTDIQMTQSPSSLSASVGDRVTITCRASQSISSYLNWYQQKPGKAPKLLIYAYSDLQSGVPSGFSGSGSGTDFTLTISSLQPEDFATYYCQQLMTHPTTFGQGTKVEIKR
notes: also called A33D (scFv)
B2: scFv DP47 VH Y32E - linker - common VL (scFv)
scFv: QVQLLESGGGLVQPGGSLRLSCAASGFTFSSEAMSWVRQAPGKGLEWVSAISGSGGSTYYADSVKGRFTISRDNSKNTLYLQMNSLRAEDTAVYYCAKSYGAFDYWGQGTLVTVSSGGGGSGGGGSGGGGSTDIQMTQSPSSLSASVGDRVTITCRASQSISSYLNWYQQKPGKAPKLLIYAYSDLQSGVPSGFSGSGSGTDFTLTISSLQPEDFATYYCQQLMTHPTTFGQGTKVEIKR
notes: also called Y32E (scFv)
B3: scFv DP47 VH T28R - linker - common VL (scFv, name in Kabat numbering)
scFv: QVQLLESGGGLVQPGGSLRLSCAASGFRFSSYAMSWVRQAPGKGLEWVSAISGSGGSTYYADSVKGRFTISRDNSKNTLYLQMNSLRAEDTAVYYCAKSYGAFDYWGQGTLVTVSSGGGGSGGGGSGGGGSTDIQMTQSPSSLSASVGDRVTITCRASQSISSYLNWYQQKPGKAPKLLIYAYSDLQSGVPSGFSGSGSGTDFTLTISSLQPEDFATYYCQQLMTHPTTFGQGTKVEIKR
notes: also called T28R (scFv)
B4: scFv DP47 VH S31D - linker - common VL (scFv)
scFv: QVQLLESGGGLVQPGGSLRLSCAASGFTFSDYAMSWVRQAPGKGLEWVSAISGSGGSTYYADSVKGRFTISRDNSKNTLYLQMNSLRAEDTAVYYCAKSYGAFDYWGQGTLVTVSSGGGGSGGGGSGGGGSTDIQMTQSPSSLSASVGDRVTITCRASQSISSYLNWYQQKPGKAPKLLIYAYSDLQSGVPSGFSGSGSGTDFTLTISSLQPEDFATYYCQQLMTHPTTFGQGTKVEIKR
notes: also called S31D (scFv)
B5: scFv DP47 VH S35G - linker - common VL (scFv, name in Kabat numbering)
scFv: QVQLLESGGGLVQPGGSLRLSCAASGFTFSSYAMGWVRQAPGKGLEWVSAISGSGGSTYYADSVKGRFTISRDNSKNTLYLQMNSLRAEDTAVYYCAKSYGAFDYWGQGTLVTVSSGGGGSGGGGSGGGGSTDIQMTQSPSSLSASVGDRVTITCRASQSISSYLNWYQQKPGKAPKLLIYAYSDLQSGVPSGFSGSGSGTDFTLTISSLQPEDFATYYCQQLMTHPTTFGQGTKVEIKR
notes: also called S35G (scFv)

In the assay the target is T1, protein A (UniProt P38507 37-477).
T1 construct: also called Protein A superantigen
The assay can be described thus: Heat/Cool phage ELISA: phage-displayed scFv, 80 C 10 min then 4 C 10 min, captured on coated protein A; signal as % of untreated sample. As to the method:
The aggregation-resistance of clones was analyzed by measuring retention of signal after heat incubation in a phage ELISA format (McCafferty et al., 1990; Jespers et al., 2004). Wells of a Nunc Maxisorp Immuno-plate were coated overnight with protein A at a concentration of about 5 μg/ml in phosphate-buffered saline (PBS). The plate was washed once with PBS and blocked with about 4% (w/v) milk powder diluted in PBS (MPBS). Single colonies were picked from agar plates and grown overnight in 2×TY medium (containing about 16 g/L tryptone; about 10 g/L yeast extract; about 5 g/L NaCl, pH 7.0) supplemented with about 15 μg/ml tetracycline shaking at about 30° C. Cells were removed by centrifugation and phages were biotinylated directly in the culture supernatant by adding biotin-PEO₄-N-hydroxysuccinimide (Pierce; about 50 μM final concentration). For heat selection, supernatant was first incubated at about 80° C. for about 10 min and then at about 4° C. for about 10 min. Supernatant was added to the blocked ELISA wells. After three washes with PBS, bound phage particles were detected using an Extravidin-HRP conjugate (Sigma) and 3,3′,5,5′-tetramethylbenzidine (TMB) substrate. Absorbance was calculated by subtracting measurements at 450 and 650 nm.
The DP47-CDR1 mutants described above were paired with a common single variable light chain (VL; SEQ ID NO: 3) via a linker (SEQ ID NO: 4) in a scFv format (see the Materials and Methods section for full experimental details). […] Correctly folded scFv were captured by protein A ELISA and the absorbance signal of the treated sample was calculated as a percentage of the untreated sample.
B1: the “Retained binding to protein A” value worked out at 22%.

As to B2, the “Retained binding to protein A” value was 27%.

Regarding B3, the “Retained binding to protein A” value was 4%.

Take B4: the “Retained binding to protein A” value stood at 29%.

For B5, the “Retained binding to protein A” value was determined as 5%.
